Experimental data from PMC5830917 (The EMBO Journal, 2018).

Molecular target: T1, GFP-NBR1 (human, UniProt Q14596-1 1-966)
T1 construct: NBR1, human, ORF amplified from a HeLa cDNA library; The TEV site lies between StrepII and GFP, so the cleaved protein keeps GFP; also called 6xHis‐Strep‐TEV‐GFP‐NBR1; Strep‐TEV‐GFP‐NBR1; source: Sf9 insect cells (Bac-to-Bac), purified (HisTrap, TEV cleavage, Superose6); not shown: His6, N-terminal, cleaved; StrepII, N-terminal, cleaved; GFP (meGFP, A206K), N-terminal, kept
T1 sequence (looked up): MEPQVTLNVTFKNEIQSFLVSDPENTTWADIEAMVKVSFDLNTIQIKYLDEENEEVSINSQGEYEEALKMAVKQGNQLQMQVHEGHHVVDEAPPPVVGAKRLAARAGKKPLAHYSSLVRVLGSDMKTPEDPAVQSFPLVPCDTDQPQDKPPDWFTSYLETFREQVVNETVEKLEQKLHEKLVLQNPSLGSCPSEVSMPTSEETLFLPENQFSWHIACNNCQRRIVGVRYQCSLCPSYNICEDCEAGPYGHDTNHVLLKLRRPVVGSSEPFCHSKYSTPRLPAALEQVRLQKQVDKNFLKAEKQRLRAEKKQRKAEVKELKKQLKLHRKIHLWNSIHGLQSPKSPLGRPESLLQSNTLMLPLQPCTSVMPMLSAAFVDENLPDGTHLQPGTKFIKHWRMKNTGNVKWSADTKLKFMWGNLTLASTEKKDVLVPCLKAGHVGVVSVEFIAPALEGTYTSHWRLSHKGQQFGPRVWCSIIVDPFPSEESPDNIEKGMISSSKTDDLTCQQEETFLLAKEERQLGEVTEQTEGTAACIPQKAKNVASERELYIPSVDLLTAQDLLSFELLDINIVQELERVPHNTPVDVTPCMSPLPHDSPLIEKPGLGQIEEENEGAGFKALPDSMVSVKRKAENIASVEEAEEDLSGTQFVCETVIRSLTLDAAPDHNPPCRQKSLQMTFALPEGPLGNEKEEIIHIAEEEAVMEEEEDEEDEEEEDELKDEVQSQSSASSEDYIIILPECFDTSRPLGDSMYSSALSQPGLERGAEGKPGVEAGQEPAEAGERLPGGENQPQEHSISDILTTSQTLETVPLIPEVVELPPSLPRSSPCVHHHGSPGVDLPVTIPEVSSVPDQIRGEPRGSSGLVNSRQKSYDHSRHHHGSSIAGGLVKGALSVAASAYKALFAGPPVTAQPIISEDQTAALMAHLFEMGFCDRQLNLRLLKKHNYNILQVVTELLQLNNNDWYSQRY
Assay: microscopy-based protein-protein interaction assay on beads; GFP-NBR1 on GFP-TRAP beads; 2 μM mCherry-p62 variants at equilibrium in 25 mM HEPES pH 7.5, 150 mM NaCl, 1 mM DTT; spinning disk imaging
Conditions: both partners purified

B1: mCherry-p62 PB1 (1–102) (domain or fragment, UniProt Q13501 1-102, looked up)
chain: MASLTVKAYLLGKEDAAREIRRFSFCCSPEPEAEAEAAAGPGPCERLLSRVAALFPALRPGGFQAHYRDEDGDLVAFSSDEELTMAMSYVKDDIFRIYIKEK
notes: p62/SQSTM1, PB1 domain, residues 1-102; also called isolated PB1 domain of p62; source: recombinant, purified; site-directed mutagenesis on the plasmid for the full-length protein (pET-mCherry-p62 PB1); not shown: mCherry, N-terminal, kept
- binding result: binds
